Measurements taken from patent publication US20240317884A1, “METHOD FOR ALLOWING IMMUNE CELLS INFILTRATION IN TUMORS” (Alethia Biotherapeutics Inc., priority 2021, published 2024).

Tests used:
[1] = Phase I: detection of AB-16B5 in tumor biopsies; format: in vivo, human; settings: for Detection of AB-16B5 in Tumor Biopsies, Post-Treatment Biopsy: 12.0 mg/kg, after dosing on Cycle 2 Day 15
Text: Tumor biopsies were collected during the standard dose escalation to investigate the presence of AB-16B5 within the tumor. A total of 4 pre-treatment and 5 post-treatment tumor biopsies were suitable for analysis. These post-treatment tumor biopsies were collected following dosing on Cycle 2 Day 15 (between Cycle 2 Day 15 and Cycle 2 Day 18). The biopsy sites were liver (n=2), lymph node (n=2), bladder, skin and vulva.

tumor biopsies = assay: Human tumor biopsies of patients treated with AB-16B5 as single agent (H&E); format: in vivo; settings: after the second cycle
Protocol: In parallel human tumor biopsies of patients treated with AB-16B5 as single agent were analyzed (FIGS. 2B-2E). Needle biopsies obtained from a patient with metastatic thyroid cancer and form a patient with inoperable metastatic gastric cancer were sectioned and stained with hematoxylin and eosin. An on-treatment biopsy from a patient with thyroid cancer metastasic to the lungs was obtained after the second cycle treatment with AB-16B5. […] Hemosiderin-laden macrophages were observed inside necrotic areas some reflecting red blood cell extravasation associated with necrosis (not shown). […] On display one finds.

Substance: AB-16B5: humanized IgG2 monoclonal antibody targeting sCLU; light chain SEQ ID NO:11, heavy chain SEQ ID NO:12
- presence of AB-16B5 in all pre-treatment tumor biopsies ([1]; 4 pre-treatment biopsies, baseline): negative
- presence of AB-16B5 in all post-treatment tumor biopsies analyzed ([1]; 5 post-treatment biopsies): confirmed
- Detection of AB-16B5 in Tumor Biopsies, Post-Treatment Biopsy ([1]; Subject 009, Lung, biopsy site Liver): Positive
- Detection of AB-16B5 in Tumor Biopsies, Post-Treatment Biopsy ([1]; Subject 010, Colorectal, biopsy site Liver): Positive
- Detection of AB-16B5 in Tumor Biopsies, Pre-Treatment Biopsy ([1]; Subject 011, Colorectal, biopsy site Lymph node, baseline): Negative
- Detection of AB-16B5 in Tumor Biopsies, Post-Treatment Biopsy ([1]; Subject 012, Breast, biopsy site Skin): Positive
- Detection of AB-16B5 in Tumor Biopsies, Pre-Treatment Biopsy ([1]; Subject 012, Breast, biopsy site Skin, baseline): Negative
- Detection of AB-16B5 in Tumor Biopsies, Post-Treatment Biopsy ([1]; Subject 013, Prostate, biopsy site Bladder): Positive
- Detection of AB-16B5 in Tumor Biopsies, Pre-Treatment Biopsy ([1]; Subject 014, Vulvar melanoma, biopsy site Vulva, baseline): Negative
- Detection of AB-16B5 in Tumor Biopsies, Post-Treatment Biopsy ([1]; Subject 015, Ovarian, biopsy site Lymph node): Positive
- Detection of AB-16B5 in Tumor Biopsies, Pre-Treatment Biopsy ([1]; Subject 015, Ovarian, biopsy site Lymph node, baseline): Negative
- immune infiltrate, on-treatment biopsy (tumor biopsies; patient with inoperable metastatic gastric cancer, small fragments): infiltrated by a mix neutrophilic and mononucleated immune cells infiltrate
- immune infiltrate, on-treatment biopsy (tumor biopsies; patient with thyroid cancer metastatic to the lungs, edge of fragment): lymphoplasmacytic infiltrate was observed
- necrosis of tumor fragments, on-treatment biopsy (tumor biopsies; patient with thyroid cancer metastatic to the lungs, single agent): essentially all tumor fragments were necrotic
